{
  "source": "ChEMBL document CHEMBL5634160",
  "about": "“Synthesis, biological evaluation and action mechanism of 7H-[1,2,4] triazolo [3,4-b] [1,3,4] thiadiazine-phenylhydrazone derivatives as α-glucosidase inhibitors” (Eur J Med Chem, 2023)",
  "system": "COc1cc(/C=N/Nc2nnc3n2N=C(c2ccccc2)CS3)cc(OC)c1O",
  "test": "Mixed-type inhibition of Saccharomyces cerevisiae alpha-glucosidase using nitrophenol-alpha-D-glucopyranoside (pNPG) as substrate assessed as Vmax at 24 to 48 uM measured after 15 mins by Lineweaver-Burk plot analysis",
  "assay_type": "protein assay",
  "details": "dose 24-48 µM",
  "data": [
    {"substance": "Alpha-glucosidase (Saccharomyces cerevisiae S288c) (from UniProt P53341+P38158+P07265)", "values": [
      {"measurement": "Vmax", "result": 0.07, "unit": "µM/L.min"}
    ]}
  ]
}
